Earlier results in article PMC4291147, “Molecular Basis of Histone Tail Recognition by Human TIP5 PHD Finger and Bromodomain of the Chromatin Remodeling Complex NoRC” (Structure(London, England:1993), 2015).
Read-outs that look alike come from different tables or passages of the source.

Legend:
[1] = molecular target: Histone H3 K14ac peptide (Homo sapiens) (UniProt P68431); assay: ITC
[2] = molecular target: Histone H3 K14ac peptide (Homo sapiens) (UniProt P68431); assay: STD-NMR
[3] = molecular target: Histone H3 K14ac peptide (Homo sapiens) (UniProt P68431)

Sequence of PCAF bromodomain (Q92831 720-830): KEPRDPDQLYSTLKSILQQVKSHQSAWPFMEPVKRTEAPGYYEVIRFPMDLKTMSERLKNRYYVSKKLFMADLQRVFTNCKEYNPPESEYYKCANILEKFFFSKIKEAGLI
Sequence of PCAF BRD (Q92831 723-827): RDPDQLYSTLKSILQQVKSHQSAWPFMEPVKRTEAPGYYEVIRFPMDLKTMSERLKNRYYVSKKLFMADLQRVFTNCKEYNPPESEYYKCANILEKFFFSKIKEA
Sequence of SMARCA4 bromodomain (P51532 1450-1567): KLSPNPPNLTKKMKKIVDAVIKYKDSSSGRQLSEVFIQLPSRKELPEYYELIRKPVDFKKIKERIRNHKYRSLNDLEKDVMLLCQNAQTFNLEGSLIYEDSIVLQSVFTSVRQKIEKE
Sequence of SMARCA4 BRD (P51532 1453-1564): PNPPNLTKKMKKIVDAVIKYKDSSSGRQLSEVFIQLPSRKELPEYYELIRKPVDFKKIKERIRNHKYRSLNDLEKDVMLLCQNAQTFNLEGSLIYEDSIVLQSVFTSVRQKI
Sequence of SMARCA2 bromodomain (P51531 1375-1509): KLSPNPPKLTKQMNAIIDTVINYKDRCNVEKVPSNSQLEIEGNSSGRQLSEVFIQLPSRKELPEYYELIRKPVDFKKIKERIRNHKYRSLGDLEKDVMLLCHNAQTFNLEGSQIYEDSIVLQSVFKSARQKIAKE
Sequence of SMARCA2 BRD (P51531 1378-1506): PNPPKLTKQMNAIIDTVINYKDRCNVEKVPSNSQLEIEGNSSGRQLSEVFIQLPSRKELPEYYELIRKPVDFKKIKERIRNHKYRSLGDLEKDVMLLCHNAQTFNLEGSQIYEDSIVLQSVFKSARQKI
Sequence of PB1 BRD2 (Q86U86 177-287): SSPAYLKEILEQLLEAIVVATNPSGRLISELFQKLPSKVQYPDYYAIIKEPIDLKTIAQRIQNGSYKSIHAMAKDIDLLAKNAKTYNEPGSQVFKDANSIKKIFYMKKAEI
Sequence of PB1 BRD 2 (Q86U86 177-287): as above

Substance | Kd [1] | Kd [2] | Kd [3]
PCAF BRD (from UniProt Q92831) | 188 µM | 128 µM | –
SMARCA4 bromodomain (from UniProt P51532) | – | 1200 µM | –
PB1 BRD2 (from UniProt Q86U86) | – | – | 500 µM
SMARCA2 bromodomain (from UniProt P51531) | 285 µM | – | –
PCAF bromodomain (from UniProt Q92831) | 188 µM | 128 µM | –
SMARCA4 BRD (from UniProt P51532) | – | 1200 µM | –
PB1 BRD 2 (from UniProt Q86U86) | – | 500 µM | –
SMARCA2 BRD (from UniProt P51531) | 285 µM | – | –
